Test [1] deals with V2 aa 168-182 peptide (HIV-1). Kind of test: ELISA on V2 peptide (FIG. 55A). In general terms: An ELISA detects its analyte on a solid surface through an enzyme-linked reagent.
For test [2], the target named is 92TH023 V2 cyclic peptide (HIV-1). Kind of test: RPMI 8866 cell adhesion to coated peptide, mAb 20 ug/ml.
The target is the same in test [3]. Kind of test: RPMI 8866 cell adhesion to coated peptide, mAb 10 ug/ml.
Test [4] has the same target. Kind of test: RPMI 8866 cell adhesion to coated peptide, mAb 5 ug/ml.

The text below walks through data of US9988424.

B1: CH59 (antibody, V domains shown)
VH: EVQLVESGGGLVQPGRSLRLSCAASGFTFDDGAMHWVRQAPGKGLEWVSGISWNSNIIAYADSVKGRFTISRDNAKNSLYLEMNSLRVEDTALYYCAKDSPRGELPLNYWGQGTLVTVSS
VL: SYELTQPPSVSVSPGQTARITCSGDALPKNYAYWYQQKSGQAPVLVIYEDSKRPSGIPERFSGSSSGTMATLTISGAQVEDEADYYCYSTDSSGNHRVFGGGTKLTVL
For orientation: EC50 means the concentration at which the effect is half-maximal. The low end stands for a more potent agent, the high end for a less potent agent. What is called % inhibition is the relative decrease from the control value, in per cent. Turning to B1, the EC50 in test [1] turned out to be 3 ng/mL. The % inhibition worked out at 44.8% in test [2], 36.7% in test [3] and 19.4% in test [4].

B2: 697D (antibody, V domains shown)
VH: QVQLVQSGAEVKKPGSSVKVSCKASGGNFNTYTISWVRQAPGQGLEWMGRIIPIFGIVNPAQKFPGRVTINVDKSTNTAYMELSSLRSEDTAVYYCATSGVGLHFGYFDYWGQGTQVTVSS
VL: QSVLTQPPSVSGAPGQRVTISCTGSSSNIGAHYDVHWYQQLPGTAPKLLIYGNSNRPSGVPDRFSGSKSGTSASLAITGLQAEDEADYYCQSYDSSLSGYVFGTGTKVTVL
Take B2: the % inhibition in test [3] was -13.1%.
